Results as given in patent US20240209080A1 (PROFOUNDBIO US, published 2024).

Columns and labels:
[1] = biological target: T1, human FOLR1 protein, His Tag (ACRO-FO1-H52H1) (human, UniProt P15328 25-233); assay: ELISA OD450 on human FOLR1 divided by OD450 of IgG level ELISA
T1 construct: not shown: His tag

[2] = biological target: T2, human FOLR1 on cells (Hela, RPTEC/TERT1, OVCAR3, OV90, IGROV-1, JEG-3, KB, NCI-H441) (human, UniProt P15328 25-234); assay: cell-based or functional assay
[3] = biological target: T3, Recombinant His-tagged FOLR1 (Example 5 ELISA) (UniProt P15328 25-233, limits assumed); assay: ELISA on coated recombinant His-tagged FOLR1, OD450; unit from the axis 'ADC conc ng/ml'
T3 construct: also called FOLR1-his; recombinant protein FOLR-1; not shown: His tag

[4] = biological target: T2, human FOLR1 on cells (Hela, …); assay: flow cytometry on JEG-3 cells, PE anti-human Fc; unit from the axis 'Con.nM'
[5] = biological target: T3, Recombinant His-tagged FOLR1 (Example 5 …); assay: ELISA on coated recombinant His-tagged FOLR1, OD450; unit from the axis 'ng/ml'; curves labelled without '-ADC'

T2 sequence (P15328 25-234): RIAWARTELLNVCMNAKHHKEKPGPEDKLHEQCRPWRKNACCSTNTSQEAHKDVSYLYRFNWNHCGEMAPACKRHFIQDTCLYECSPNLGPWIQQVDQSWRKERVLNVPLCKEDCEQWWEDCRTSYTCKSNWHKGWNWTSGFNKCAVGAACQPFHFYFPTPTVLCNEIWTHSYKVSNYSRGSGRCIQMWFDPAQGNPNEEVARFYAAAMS
T1 sequence (P15328 25-233 limits assumed): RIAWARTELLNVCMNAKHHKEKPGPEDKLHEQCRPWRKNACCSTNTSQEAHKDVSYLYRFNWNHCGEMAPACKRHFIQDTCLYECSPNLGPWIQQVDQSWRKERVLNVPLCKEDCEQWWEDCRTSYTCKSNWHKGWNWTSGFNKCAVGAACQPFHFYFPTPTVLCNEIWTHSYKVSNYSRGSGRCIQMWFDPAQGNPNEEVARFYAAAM
T3 sequence (P15328 25-233 limits assumed): as above

B1: anti-FOLR1 antibody F40 (antibody, V domains shown)
VH: EVQLLESGGGVVQPGRSLRLSCAASGFTFSSYAMHWVRQAPGKGLEWVAVISYDGSNKYYADSVKGRFIISRDNSKNTVYLQMNSLRAEDTAVYYCARPTYVFTYTGSSFDYWGQGTQVTVSS
VL: DIQVTQSPSSLSASLGDTVSITCRASRGLTDSVAWYQQKPGQAPKLLIYAASTLQSGVPSRFGGSGSGSYFTLTITSLQPEDVATYYCQNYKSAPWTFGQGTKVEIK
notes: also called clone F40
B1 was tested, and the “Target binding/IgG level” value [1] was 1.02 ratio of OD450.

B2: FR107-ADC (reference antibody mirvetuximab huFR107 conjugated to mc-VC-PAB-MMAE) (antibody, V domains shown)
VH: QVQLVQSGAEVVKPGASVKISCKASGYTFTGYFMNWVKQSPGQSLEWIGRIHPYDGDTFYNQKFQGKATLTVDKSSNTAHMELLSLTSEDFAVYYCTRYDGSRAMDYWGQGTTVTVSS
VL: DIVLTQSPLSLAVSLGQPAIISCKASQSVSFAGTSLMHWYHQKPGQQPRLLIYRASNLEAGVPDRFSGSGSKTDFTLTISPVEAEDAATYYCQQSREYPYTFGGGTKLEIK
modifications: mc-VC-PAB-MMAE on cysteine thiols after TCEP reduction (positions not stated; DAR within 3~4)
notes: Control conjugate
With B2 the “Internalization ratio (%), Hela, 4 h” value [2] was 58.4%, the “Internalization ratio (%), Hela, 24 h” value [2] was 75.1% and the “Internalization ratio (%), OV90, 4 h” value [2] was 28%. The “Internalization ratio (%), OVCAR3, 4 h” value [2] was 26.3%, the “Internalization ratio (%), OVCAR3, 24 h” value [2] was 44.8% and the EC50 [3] was 3.39 ng/mL.

B3: F8-ADC (antibody F8 conjugated to mc-VC-PAB-MMAE) (antibody, V domains shown)
VH: EVQLLESGGGVVQHGRSLRLSCAASGFTFSSYGMHWVRQAPGKGLEWVAVISYDGSNKYYADSVKGRFTISRDNSKNTLYLQMNSLRAEDTAVYYCARPRAYYGAYGSSFDYWGQGTQVTVSS
VL: EIVMTQSPSSVSASVGDRVAITCRASQGISSWLAWYQQKPGKAPKLLIYAASSLQSGVPSRFSGSGSGTDFTLTISSLQPEDFATYYCQQSYSTPLTFGGGTKVDIK
modifications: mc-VC-PAB-MMAE on cysteine thiols after TCEP reduction (positions not stated; DAR within 3~4)
notes: Antibody-drug conjugate; also called F8 immunoconjugate
In the case of B3, the “Internalization ratio (%), Hela, 4 h” value [2] is reported as 45.7%, the “Internalization ratio (%), Hela, 24 h” value [2] is reported as 73.1% and the “Internalization ratio (%), OV90, 4 h” value [2] is reported as 32.7%. The “Internalization ratio (%), OVCAR3, 4 h” value [2] was 34.5%, the “Internalization ratio (%), OVCAR3, 24 h” value [2] was 47.6% and the EC50 [3] was 6.53 ng/mL.

B4: anti-FOLR1 antibody F1 (antibody, V domains shown)
VH: EVQLLESGGGVVQPGRSLRLSCAASGFTFSSYGMHWVRQAPGKGLEWVAVISYDGSNKYYADSVKGRFTISRDNSKNTLYLQMNSLRAEDTAVYYCARPRAYYGAYGSSFDYWGQGTQVTVSS
VL: EIVMTQSPSSVSASVGDRVAITCRASQGISSWLAWYQQKPGKAPKLLIYAASSLQSGVPSRFSGSGSGTDFTLTISSLQPEDFATYYCQQSYSTPLTFGGGTKVDIK
notes: also called clone F1
With B4 the “Target binding/IgG level” value [1] was 1.08 ratio of OD450.

B5: F26-ADC (antibody F26 conjugated to mc-VC-PAB-MMAE) (antibody, V domains shown)
VH: EVQLLESGGGVVQRGRSLRLSCAASGFTFSSYGMHWVRQAPGKGLEWVAVISYDGSNKYYADSVKGRFTISRDNSKNTLYLPMNSLRAEDTAVYYCARPRAYYGAYGSSFDYWGQGTQVTVSS
VL: EIVMTQSPSSVSASVGDRVAITCRASQGISSWLAWYQQKPGKAPKLLIYAASSLQSGVPSRFSGSGSGTDFTLTISSLQPEDFATYYCQQSYSTPLTFGGGTKVDIK
modifications: mc-VC-PAB-MMAE on cysteine thiols after TCEP reduction (positions not stated; DAR within 3~4)
notes: Antibody-drug conjugate; also called F26 immunoconjugate
With B5 the “Internalization ratio (%), Hela, 4 h” value [2] was 43.3%, the “Internalization ratio (%), Hela, 24 h” value [2] was 75.5% and the “Internalization ratio (%), OV90, 4 h” value [2] was 21.6%. For the same binder, the “Internalization ratio (%), OVCAR3, 4 h” value [2] was 38.3%, the “Internalization ratio (%), OVCAR3, 24 h” value [2] was 48.1% and the EC50 [3] was 8.04 ng/mL.

B6: anti-FOLR1 antibody F131 (antibody, V domains shown)
VH: EVQLLESGGGVVQPGRSLRLSCAASGFTFSSYGMHWVRQAPGKGLEWVAVISYDGSNKYYADSVKGRFTISRANSKNTLYLQMNSLRAEDTAVYYCARPRAYYGAYGSSFDYWGQGTQVTVSS
VL: EIVMTQSPSSVSASVGDRVAITCRASQGISSWLAWYQQKPGKAPKLLIYAASSLQSGVPSRFSGSGSGTDFTLTISSLQPEDFATYYCQQSYSTPLTFGGGTKVDIK
notes: also called F131 mAb; clone F131
B6 was tested, and the “Target binding/IgG level” value [1] was 1.02 ratio of OD450, the EC50 [4] was 1.55 nM and the EC50 [5] was 8.46 ng/mL.

B7: anti-FOLR1 antibody F8 (antibody, V domains shown)
VH: EVQLLESGGGVVQHGRSLRLSCAASGFTFSSYGMHWVRQAPGKGLEWVAVISYDGSNKYYADSVKGRFTISRDNSKNTLYLQMNSLRAEDTAVYYCARPRAYYGAYGSSFDYWGQGTQVTVSS
VL: EIVMTQSPSSVSASVGDRVAITCRASQGISSWLAWYQQKPGKAPKLLIYAASSLQSGVPSRFSGSGSGTDFTLTISSLQPEDFATYYCQQSYSTPLTFGGGTKVDIK
notes: also called clone F8
For B7, the “Target binding/IgG level” value [1] was 1.12 ratio of OD450 and the EC50 [5] was 8.48 ng/mL.

B8: anti-FOLR1 antibody F112 (antibody, V domains shown)
VH: EVQLLESGGGVVQPGRSLRLSCAASGFTFSSYGMHWVRQAPGKGLEWVAVISYDGSNKYYADSVKGRFTISRHNSKNTLYLQMNSLRAEDTAVYYCARPRAYYGAYGSSFDYWGQGTQVTVSS
VL: EIVMTQSPSSVSASVGDRVAITCRASQGISSWLAWYQQKPGKAPKLLIYAASSLQSGVPSRFSGSGSGTDFTLTISSLQPEDFATYYCQQSYSTPLTFGGGTKVDIK
notes: also called clone F112
In the case of B8, the “Target binding/IgG level” value [1] is reported as 1.12 ratio of OD450.

B9: anti-FOLR1 antibody F123 (antibody, V domains shown)
VH: EVQLLESGGGVVQPERSLRLSCAASGFTFSSYGMHWVRQAPGKGLEWVAVISYDGSNKYYADSVKGRFTISRANSKNTLYLQMNSLRAEDTAVYYCARPRAYYGAYGSSFDYWGQGTQVTVSS
VL: EIVMTQSPSSVSASVGDRVAITCRASQGISSWLAWYQQKPGKAPKLLIYAASSLQSGVPSRFSGSGSGTDFTLTISSLQPEDFATYYCQQSYSTPLTFGGGTKVDIK
notes: also called clone F123
With B9 the “Target binding/IgG level” value [1] was 1.06 ratio of OD450.

B10: anti-FOLR1 antibody F48 (antibody, V domains shown)
VH: EVQLLESGGGVVQPGRSLRLSCAASGFTFSSYGMHWVRQAPGKGLEWVAVISYDGSNKYYADSVKGRFTISRDNSKNTLYLHMNSLRAEDTAVYYCARPRAYYGAYGSSFDYWGQGTQVTVSS
VL: EIVMTQSPSSVSASVGDRVAITCRASQGISSWLAWYQQKPGKAPKLLIYAASSLQSGVPSRFSGSGSGTDFTLTISSLQPEDFATYYCQQSYSTPLTFGGGTKVDIK
notes: also called clone F48
With B10 the “Target binding/IgG level” value [1] was 1.12 ratio of OD450.

B11: anti-FOLR1 antibody F26 (antibody, V domains shown)
VH: EVQLLESGGGVVQRGRSLRLSCAASGFTFSSYGMHWVRQAPGKGLEWVAVISYDGSNKYYADSVKGRFTISRDNSKNTLYLPMNSLRAEDTAVYYCARPRAYYGAYGSSFDYWGQGTQVTVSS
VL: EIVMTQSPSSVSASVGDRVAITCRASQGISSWLAWYQQKPGKAPKLLIYAASSLQSGVPSRFSGSGSGTDFTLTISSLQPEDFATYYCQQSYSTPLTFGGGTKVDIK
notes: also called clone F26
In the case of B11, the “Target binding/IgG level” value [1] is reported as 1.21 ratio of OD450 and the EC50 [5] is reported as 4.68 ng/mL.

B12: anti-FOLR1 antibody F138 (antibody, V domains shown)
VH: EVQLLESGGGVVQPGRSLRLSCAASGFTFSSYGMHWVRQAPGKGLEWVAVISYDGSNKYYADSVKGRFTISTHNSKNTLYLQMNSLRAEDTAVYYCARPRAYYGAYGSSFDYWGQGTQVTVSS
VL: EIVMTQSPSSVSASVGDRVAITCRASQGISSWLAWYQQKPGKAPKLLIYAASSLQSGVPSRFSGSGSGTDFTLTISSLQPEDFATYYCQQSYSTPLTFGGGTKVDIK
notes: also called clone F138
For B12, the “Target binding/IgG level” value [1] was 1.2 ratio of OD450.

B13: anti-FOLR1 antibody F100 (antibody, V domains shown)
VH: EVQLLESGGGVVQPGRSLRLSCAASGFTFSSYGMHWVRQAPGKGLEWVAVISYDGSNKYYADSVKGRFTISRPNSKNTLYLQMNSLRAEDTAVYYCARPRAYYGAYGSSFDYWGQGTQVTVSS
VL: EIVMTQSPSSVSASVGDRVAITCRASQGISSWLAWYQQKPGKAPKLLIYAASSLQSGVPSRFSGSGSGTDFTLTISSLQPEDFATYYCQQSYSTPLTFGGGTKVDIK
notes: also called clone F100
B13 was tested, and the “Target binding/IgG level” value [1] was 1.48 ratio of OD450.

B14: F131-ADC (antibody F131 conjugated to mc-VC-PAB-MMAE) (antibody, V domains shown)
VH: EVQLLESGGGVVQPGRSLRLSCAASGFTFSSYGMHWVRQAPGKGLEWVAVISYDGSNKYYADSVKGRFTISRANSKNTLYLQMNSLRAEDTAVYYCARPRAYYGAYGSSFDYWGQGTQVTVSS
VL: EIVMTQSPSSVSASVGDRVAITCRASQGISSWLAWYQQKPGKAPKLLIYAASSLQSGVPSRFSGSGSGTDFTLTISSLQPEDFATYYCQQSYSTPLTFGGGTKVDIK
modifications: mc-VC-PAB-MMAE on cysteine thiols after TCEP reduction (positions not stated; DAR within 3~4)
notes: Antibody-drug conjugate; also called F131 immunoconjugate
In the case of B14, the “Internalization ratio (%), Hela, 4 h” value [2] is reported as 50%, the “Internalization ratio (%), Hela, 24 h” value [2] is reported as 74.8% and the “Internalization ratio (%), OV90, 4 h” value [2] is reported as 15%. The “Internalization ratio (%), OVCAR3, 4 h” value [2] was 35.2%, the “Internalization ratio (%), OVCAR3, 24 h” value [2] was 47.7% and the EC50 [3] was 6.64 ng/mL.
